Laboratory results from the supplement of paper PMC10065799, “High-throughput profiling of sequence recognition by tyrosine kinases and SH2 domains using bacterial peptide display” (eLife, 2023).

What was measured:
SHP2-C SH2 = assay: SH2 binding enrichment of the phosphorylated peptide, bacterial display (enrichment ratio); higher = better substrate or ligand; peptides without Tyr show the background
c-Src SH2 = assay: as above
Grb2 SH2 = Grb2 SH2 (UniProt P62993); assay: as above
Hck = Hck (UniProt P08631); assay: phosphorylation enrichment, bacterial display (enrichment ratio); higher = better substrate or ligand; peptides without Tyr show the background
Sequence of Hck (P08631 whole entry, looked up): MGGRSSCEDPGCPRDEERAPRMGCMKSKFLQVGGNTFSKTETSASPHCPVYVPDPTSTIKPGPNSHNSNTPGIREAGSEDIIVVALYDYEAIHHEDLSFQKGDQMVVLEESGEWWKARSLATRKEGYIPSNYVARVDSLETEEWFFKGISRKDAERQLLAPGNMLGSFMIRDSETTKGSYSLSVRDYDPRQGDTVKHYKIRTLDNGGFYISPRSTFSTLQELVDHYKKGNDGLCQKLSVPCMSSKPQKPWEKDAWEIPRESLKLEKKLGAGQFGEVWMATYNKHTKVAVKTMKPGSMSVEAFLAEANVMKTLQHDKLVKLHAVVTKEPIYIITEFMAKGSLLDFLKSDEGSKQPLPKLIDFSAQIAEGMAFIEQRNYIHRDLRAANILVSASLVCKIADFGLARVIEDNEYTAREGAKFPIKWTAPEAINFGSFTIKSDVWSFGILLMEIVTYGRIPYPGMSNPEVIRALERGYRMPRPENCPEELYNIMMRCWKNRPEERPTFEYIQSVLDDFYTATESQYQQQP

c-Abl (mouse) = assay: as above
c-Src = assay: as above
Fer (mouse) = assay: as above
EPHB2 = EPHB2 (UniProt P29323); assay: as above
Fes = Fes (UniProt P07332); assay: as above
MERTK = MERTK (UniProt Q12866); assay: as above
Sequence of MERTK (Q12866 whole entry, looked up): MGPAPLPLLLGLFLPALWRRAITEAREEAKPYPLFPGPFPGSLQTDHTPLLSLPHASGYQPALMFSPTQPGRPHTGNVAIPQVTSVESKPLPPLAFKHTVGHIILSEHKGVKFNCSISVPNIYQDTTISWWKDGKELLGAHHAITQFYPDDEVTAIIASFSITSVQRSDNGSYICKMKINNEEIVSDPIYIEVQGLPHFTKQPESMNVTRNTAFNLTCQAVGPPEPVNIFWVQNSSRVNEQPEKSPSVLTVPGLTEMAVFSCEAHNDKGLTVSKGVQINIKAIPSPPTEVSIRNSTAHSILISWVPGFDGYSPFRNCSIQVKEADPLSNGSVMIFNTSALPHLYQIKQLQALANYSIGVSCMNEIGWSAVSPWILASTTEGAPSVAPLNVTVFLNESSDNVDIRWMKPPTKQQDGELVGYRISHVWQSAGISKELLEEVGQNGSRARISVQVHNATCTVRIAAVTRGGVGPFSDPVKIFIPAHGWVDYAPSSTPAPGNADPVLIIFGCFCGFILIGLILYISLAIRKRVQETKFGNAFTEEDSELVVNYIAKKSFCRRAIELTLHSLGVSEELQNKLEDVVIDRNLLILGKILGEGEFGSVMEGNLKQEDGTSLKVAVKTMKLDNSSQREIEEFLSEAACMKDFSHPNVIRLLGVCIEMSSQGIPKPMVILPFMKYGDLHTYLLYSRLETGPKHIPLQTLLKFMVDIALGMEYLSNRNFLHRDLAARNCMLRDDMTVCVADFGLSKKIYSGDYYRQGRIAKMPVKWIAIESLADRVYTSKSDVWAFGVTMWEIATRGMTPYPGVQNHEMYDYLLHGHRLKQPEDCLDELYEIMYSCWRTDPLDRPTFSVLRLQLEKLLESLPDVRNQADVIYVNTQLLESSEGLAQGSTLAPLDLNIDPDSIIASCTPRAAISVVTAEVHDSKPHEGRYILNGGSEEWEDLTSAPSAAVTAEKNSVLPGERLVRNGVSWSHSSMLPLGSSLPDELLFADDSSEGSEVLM

FGFR3 = FGFR3 (UniProt P22607); assay: as above
Sequence of FGFR3 (P22607 whole entry, looked up): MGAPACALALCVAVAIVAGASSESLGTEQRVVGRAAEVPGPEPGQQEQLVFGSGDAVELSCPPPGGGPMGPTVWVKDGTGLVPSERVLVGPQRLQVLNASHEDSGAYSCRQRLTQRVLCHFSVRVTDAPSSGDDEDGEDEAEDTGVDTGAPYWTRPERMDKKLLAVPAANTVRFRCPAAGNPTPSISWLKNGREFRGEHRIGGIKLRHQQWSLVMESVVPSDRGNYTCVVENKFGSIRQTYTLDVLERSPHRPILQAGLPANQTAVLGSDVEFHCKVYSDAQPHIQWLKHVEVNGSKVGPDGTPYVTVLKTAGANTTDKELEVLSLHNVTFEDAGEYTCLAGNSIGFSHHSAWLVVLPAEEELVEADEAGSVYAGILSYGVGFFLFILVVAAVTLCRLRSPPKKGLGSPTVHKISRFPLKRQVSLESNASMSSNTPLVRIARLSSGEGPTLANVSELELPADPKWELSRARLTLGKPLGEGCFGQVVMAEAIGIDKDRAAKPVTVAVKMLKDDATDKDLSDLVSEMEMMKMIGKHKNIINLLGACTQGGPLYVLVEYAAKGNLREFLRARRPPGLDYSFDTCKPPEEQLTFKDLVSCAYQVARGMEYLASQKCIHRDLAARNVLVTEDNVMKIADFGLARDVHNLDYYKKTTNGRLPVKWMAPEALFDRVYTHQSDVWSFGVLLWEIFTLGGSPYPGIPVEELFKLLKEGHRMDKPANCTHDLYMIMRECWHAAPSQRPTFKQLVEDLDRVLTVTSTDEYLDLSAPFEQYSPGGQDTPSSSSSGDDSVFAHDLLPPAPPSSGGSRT

FGFR1 = FGFR1 (UniProt P11362); assay: as above
Sequence of FGFR1 (P11362 whole entry, looked up): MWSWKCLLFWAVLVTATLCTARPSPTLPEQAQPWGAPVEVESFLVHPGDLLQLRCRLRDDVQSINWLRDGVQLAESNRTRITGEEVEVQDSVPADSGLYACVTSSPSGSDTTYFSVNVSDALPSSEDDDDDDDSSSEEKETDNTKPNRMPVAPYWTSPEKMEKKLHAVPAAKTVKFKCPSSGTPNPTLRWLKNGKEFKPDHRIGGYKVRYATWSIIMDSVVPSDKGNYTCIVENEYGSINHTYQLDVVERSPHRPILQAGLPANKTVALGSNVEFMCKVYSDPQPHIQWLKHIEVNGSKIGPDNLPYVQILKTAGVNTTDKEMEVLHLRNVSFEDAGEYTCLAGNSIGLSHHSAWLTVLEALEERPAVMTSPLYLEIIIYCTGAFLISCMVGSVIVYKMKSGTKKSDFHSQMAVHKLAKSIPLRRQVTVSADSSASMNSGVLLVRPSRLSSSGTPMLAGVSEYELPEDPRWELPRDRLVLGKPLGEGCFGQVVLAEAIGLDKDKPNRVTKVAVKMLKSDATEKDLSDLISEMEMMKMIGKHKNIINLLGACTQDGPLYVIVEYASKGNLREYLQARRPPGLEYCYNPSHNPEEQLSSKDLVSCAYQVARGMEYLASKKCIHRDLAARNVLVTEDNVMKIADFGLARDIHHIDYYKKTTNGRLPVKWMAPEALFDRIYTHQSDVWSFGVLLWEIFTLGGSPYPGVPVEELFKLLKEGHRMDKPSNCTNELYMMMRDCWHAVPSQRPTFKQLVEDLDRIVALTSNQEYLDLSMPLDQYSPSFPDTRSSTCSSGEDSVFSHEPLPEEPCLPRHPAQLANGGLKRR

EPHB1 = EPHB1 (UniProt P54762); assay: as above
Sequence of EPHB1 (P54762 whole entry, looked up): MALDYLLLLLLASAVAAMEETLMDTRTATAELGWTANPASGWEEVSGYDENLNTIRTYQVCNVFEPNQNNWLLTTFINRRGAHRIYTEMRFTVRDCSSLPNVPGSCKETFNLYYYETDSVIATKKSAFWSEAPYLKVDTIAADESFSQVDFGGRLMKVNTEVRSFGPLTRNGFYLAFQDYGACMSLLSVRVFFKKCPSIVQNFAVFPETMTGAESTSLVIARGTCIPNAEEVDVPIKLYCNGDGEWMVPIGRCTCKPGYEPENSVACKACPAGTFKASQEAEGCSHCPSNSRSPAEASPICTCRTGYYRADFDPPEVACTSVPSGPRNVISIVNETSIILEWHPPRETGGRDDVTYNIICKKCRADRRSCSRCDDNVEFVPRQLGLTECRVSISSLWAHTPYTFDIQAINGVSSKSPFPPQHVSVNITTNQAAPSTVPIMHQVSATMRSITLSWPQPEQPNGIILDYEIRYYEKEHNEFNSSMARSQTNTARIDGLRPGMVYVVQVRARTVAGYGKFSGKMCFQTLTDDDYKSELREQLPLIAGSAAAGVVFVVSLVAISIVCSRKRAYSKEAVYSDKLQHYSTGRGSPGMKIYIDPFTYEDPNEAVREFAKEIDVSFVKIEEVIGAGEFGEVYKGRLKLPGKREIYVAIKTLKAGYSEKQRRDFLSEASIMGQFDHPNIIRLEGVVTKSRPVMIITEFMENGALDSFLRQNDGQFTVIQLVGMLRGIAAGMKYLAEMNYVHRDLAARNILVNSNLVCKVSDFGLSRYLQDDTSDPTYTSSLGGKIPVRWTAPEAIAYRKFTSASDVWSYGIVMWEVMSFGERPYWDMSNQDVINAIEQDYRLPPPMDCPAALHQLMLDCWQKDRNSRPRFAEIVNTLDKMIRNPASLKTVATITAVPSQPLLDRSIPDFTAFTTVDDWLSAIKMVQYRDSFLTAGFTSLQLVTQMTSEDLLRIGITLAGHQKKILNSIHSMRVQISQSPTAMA

Fyn = Fyn (UniProt P06241); assay: as above
Sequence of Fyn (P06241 whole entry, looked up): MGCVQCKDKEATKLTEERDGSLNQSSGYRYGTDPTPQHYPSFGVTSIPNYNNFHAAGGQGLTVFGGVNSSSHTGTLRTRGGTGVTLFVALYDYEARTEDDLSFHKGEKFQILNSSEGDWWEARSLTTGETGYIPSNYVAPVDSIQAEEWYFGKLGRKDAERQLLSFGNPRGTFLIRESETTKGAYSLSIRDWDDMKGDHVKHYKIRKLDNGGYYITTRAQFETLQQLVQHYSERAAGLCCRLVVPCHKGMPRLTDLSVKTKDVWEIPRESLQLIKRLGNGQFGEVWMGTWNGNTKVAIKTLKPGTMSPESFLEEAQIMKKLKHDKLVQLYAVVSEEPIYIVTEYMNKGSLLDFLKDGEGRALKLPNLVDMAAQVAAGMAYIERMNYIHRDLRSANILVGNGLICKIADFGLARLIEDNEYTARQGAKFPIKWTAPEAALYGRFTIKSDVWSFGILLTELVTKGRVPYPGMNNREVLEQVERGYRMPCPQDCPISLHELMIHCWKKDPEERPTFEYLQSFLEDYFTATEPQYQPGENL

AncSZ = assay: as above
Jak2 = Jak2 (UniProt O60674); assay: as above
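Throughout, for SH2 binding enrichment of the phosphorylated peptide, bacterial display: peptide library displayed on the E. coli surface as eCPX fusions, selected cells deep-sequenced, score is each peptide's frequency after selection divided by its frequency in the input.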
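Throughout, for phosphorylation enrichment, bacterial display: 11-residue human phosphosite peptides and single-mutation variants displayed on the E. coli surface, counted by deep sequencing, each peptide's frequency after selection divided by its frequency in the unselected input library; frequency after pTyr selection over input frequency; kinase dosed for 20-30% of maximal phosphorylation in three min.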

Sequence of Grb2 SH2 (P62993 whole entry, looked up): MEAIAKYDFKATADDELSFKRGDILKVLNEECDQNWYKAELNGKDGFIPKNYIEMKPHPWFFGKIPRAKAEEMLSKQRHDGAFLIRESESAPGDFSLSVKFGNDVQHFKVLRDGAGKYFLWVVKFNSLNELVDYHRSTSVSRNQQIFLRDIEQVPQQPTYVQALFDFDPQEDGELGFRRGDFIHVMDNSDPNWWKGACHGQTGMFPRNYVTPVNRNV

Sequence | SH2 binding enrichment (SHP2-C SH2) | SH2 binding enrichment (c-Src SH2) | SH2 binding enrichment (Grb2 SH2) | phosphorylation enrichment (Hck) | phosphorylation enrichment (c-Abl (mouse)) | phosphorylation enrichment (c-Src) | phosphorylation enrichment (Fer (mouse)) | phosphorylation enrichment (EPHB2) | phosphorylation enrichment (Fes) | phosphorylation enrichment (MERTK) | phosphorylation enrichment (FGFR3) | phosphorylation enrichment (FGFR1) | phosphorylation enrichment (EPHB1) | phosphorylation enrichment (Fyn) | phosphorylation enrichment (AncSZ) | phosphorylation enrichment (Jak2)
NHQFDYTFDWT [CSNK1A1_Y294_YF] | 0.829 | 0.606 | 1.02 | 0.543 | 0.995 | 1.22 | 0.459 | 0.721 | 1.12 | 0.565 | 2.22 | 3.58 | 0.696 | 0.584 | 1.23 | 1.08
NHYKIHNLCAE [PTEN_Y68_Y68H] | 1.02 | 0.554 | 1.08 | 0.476 | 0.696 | 0.492 | 0.463 | 0.614 | 0.823 | 0.435 | 0.58 | 0.493 | 0.56 | 0.421 | 0.593 | 0.706
NKEAICSGYIR [SMCHD1_Y283_Y283C] | 0.462 | 0.436 | 0.761 | 0.424 | 1.3 | 0.399 | 0.446 | 0.547 | 0.903 | 0.42 | 0.71 | 0.509 | 0.52 | 0.369 | 0.794 | 0.875
NKHTNYTMEHI [ACTN1_Y708] | 0.603 | 0.458 | 0.814 | 0.384 | 0.352 | 0.381 | 0.36 | 0.401 | 0.549 | 0.358 | 0.296 | 0.404 | 0.35 | 0.388 | 0.509 | 0.421
NLRQQYNSPQE [UMPS_Y432_G429R] | 0.769 | 0.635 | 0.829 | 0.451 | 0.354 | 0.316 | 0.345 | 0.439 | 0.587 | 0.293 | 0.43 | 0.464 | 0.382 | 0.437 | 0.634 | 0.592
NLSVRYDSSLK [ABCC8_Y1353] | 0.863 | 0.587 | 0.887 | 0.473 | 0.55 | 0.492 | 0.422 | 0.457 | 0.98 | 0.381 | 0.633 | 0.446 | 0.515 | 0.353 | 0.68 | 0.847
NNKKDYYDMYE [SLC26A3_Y526_K521N] | 0.54 | 1.57 | 0.753 | 0.728 | 0.537 | 0.591 | 0.544 | 1.52 | 1.04 | 0.483 | 6.01 | 8.57 | 2.03 | 0.792 | 1.47 | 0.735
NPQKSYFICLF [WAS_Y83_R86C_YF] | 1.03 | 0.602 | 0.988 | 0.448 | 1 | 0.504 | 0.496 | 0.523 | 1.27 | 0.43 | 0.757 | 0.632 | 0.525 | 0.39 | 1.1 | 1.13
NPQKSYFIHLY [WAS_Y83_R86H] | 1.02 | 0.804 | 1.29 | 0.559 | 0.864 | 0.407 | 0.517 | 0.586 | 1.23 | 0.424 | 0.782 | 0.46 | 0.588 | 0.589 | 1.12 | 1.18
NPQKSYFIRLF [WAS_Y83_YF] | 0.945 | 0.701 | 1.2 | 0.5 | 0.692 | 0.464 | 0.583 | 0.501 | 1.4 | 0.457 | 0.754 | 0.579 | 0.58 | 0.453 | 1.09 | 1.21
NTQRPYYKGGG [TYROBP_Y111] | 1.39 | 0.736 | 1.21 | 0.431 | 0.427 | 0.432 | 0.411 | 0.383 | 0.592 | 0.415 | 0.421 | 0.511 | 0.331 | 0.305 | 0.516 | 0.601
NVTGHYISPFH [PPA2_Y59] | 1.11 | 1.14 | 0.852 | 0.486 | 0.92 | 0.362 | 0.325 | 0.493 | 0.542 | 0.563 | 0.422 | 0.459 | 0.423 | 0.448 | 0.552 | 0.492
NYADPYRQLPY [CTNND2_Y503_Q507P] | 0.749 | 1.25 | 0.775 | 0.847 | 0.847 | 0.827 | 0.469 | 10.7 | 0.819 | 6.98 | 2.33 | 4.13 | 10.1 | 0.501 | 0.78 | 0.669
NYDLDYDSVQP [MYC_Y16] | 0.532 | 1.26 | 0.804 | 0.78 | 1.02 | 1.18 | 1.09 | 1.96 | 1.63 | 0.493 | 1.03 | 0.74 | 1.19 | 0.659 | 3.13 | 1.39
PADCRYFAFPQ [GAMT_Y222_YF] | 1.18 | 1.26 | 0.818 | 0.733 | 0.752 | 1.43 | 0.636 | 0.959 | 0.99 | 5.65 | 1.78 | 2.35 | 1.29 | 0.817 | 1.35 | 2.66
PADCRYYTFPQ [GAMT_Y222_A224T] | 1.36 | 2.15 | 1.01 | 2.64 | 1.7 | 5.45 | 4.15 | 2.18 | 2.01 | 11 | 5 | 6 | 3.34 | 2.82 | 4.04 | 4.4
PARLEYYENEK [IRS1_Y46] | 1.35 | 18.6 | 3.84 | 0.48 | 0.725 | 0.711 | 0.25 | 0.723 | 1.26 | 0.547 | 0.882 | 0.533 | 0.613 | 0.732 | 1.26 | 1.17

Sequence | SH2 binding enrichment (SHP2-C SH2) | SH2 binding enrichment (c-Src SH2) | SH2 binding enrichment (Grb2 SH2) | phosphorylation enrichment (Hck) | phosphorylation enrichment (c-Abl (mouse)) | phosphorylation enrichment (c-Src) | phosphorylation enrichment (Fer (mouse)) | phosphorylation enrichment (EPHB2) | phosphorylation enrichment (Fes) | phosphorylation enrichment (MERTK) | phosphorylation enrichment (FGFR3) | phosphorylation enrichment (FGFR1) | phosphorylation enrichment (EPHB1) | phosphorylation enrichment (Fyn) | phosphorylation enrichment (AncSZ) | phosphorylation enrichment (Jak2)
PEADKYRLPFA [FGG_Y300_T303P_YF] | 0.517 | 0.423 | 0.821 | 0.648 | 0.634 | 0.614 | 0.512 | 0.645 | 0.717 | 0.442 | 0.657 | 0.544 | 0.61 | 0.614 | 0.988 | 0.731
PELINYHQHNF [BTK_Y361_S366F] | 0.716 | 0.434 | 1.03 | 0.836 | 0.919 | 0.942 | 0.736 | 0.826 | 1.25 | 0.696 | 0.598 | 0.851 | 0.631 | 0.789 | 1.04 | 1.02
PELINYQQHNS [BTK_Y361_H362Q] | 0.732 | 0.491 | 0.753 | 1.25 | 1.22 | 0.969 | 0.742 | 0.821 | 1.38 | 0.988 | 0.79 | 0.763 | 0.79 | 0.829 | 1.1 | 1.52
PESIMYRKFTT [NTRK3_Y744] | 0.494 | 0.6 | 1.05 | 0.517 | 0.777 | 0.488 | 0.485 | 0.552 | 0.789 | 0.616 | 0.667 | 0.384 | 0.534 | 0.67 | 3.03 | 0.666
PEVRRHVLPLN [RPE65_Y368_Y368H] | 0.391 | 0.663 | 0.834 | 0.894 | 1.73 | 0.661 | 0.843 | 0.886 | 1.61 | 0.669 | 1.03 | 0.707 | 0.849 | 0.587 | 1.35 | 1.57
PFTRNYYVQAV [CYBA_Y87_R90Q] | 3.28 | 1.19 | 0.981 | 0.446 | 1.12 | 0.615 | 0.555 | 0.706 | 1.1 | 1.25 | 1.9 | 1.99 | 0.787 | 0.46 | 1.03 | 1.17
PGQRVYVVAER [SHH_Y316] | 0.586 | 0.665 | 0.879 | 0.57 | 0.503 | 0.464 | 0.494 | 0.537 | 0.91 | 0.447 | 0.524 | 0.522 | 0.63 | 0.395 | 0.883 | 0.556
PGRRFYVVACD [RNASE3_Y134] | 0.569 | 0.849 | 1.05 | 0.733 | 1.24 | 2.16 | 0.52 | 1.19 | 1.65 | 1.22 | 0.916 | 0.654 | 0.536 | 0.389 | 1.43 | 2.05
PIDLFYLMDLS [ITGB2_Y131_YF] | 0.88 | 0.524 | 0.957 | 0.771 | 0.98 | 1.52 | 0.426 | 0.559 | 1.99 | 0.728 | 1.13 | 0.633 | 0.737 | 0.599 | 1.61 | 1.22
PIFLFYLMDLS [ITGB2_Y131_D128Y_YF] | 0.874 | 0.567 | 0.61 | 0.95 | 1.91 | 1.12 | 1.24 | 1.01 | 3.28 | 0.914 | 1.31 | 0.702 | 2.51 | 0.613 | 2.78 | 3.98
PIPIKYKAMKK [MYD88_Y257_L252P] | 1.1 | 0.822 | 1.32 | 0.582 | 0.642 | 0.534 | 0.336 | 0.495 | 0.72 | 0.382 | 0.858 | 0.383 | 0.407 | 0.5 | 0.677 | 0.665
PLDGESFTLQI [TP53_Y327_Y327S] | 0.706 | 0.422 | 0.663 | 0.619 | 1.23 | 0.616 | 0.552 | 0.93 | 1.67 | 0.549 | 1.05 | 0.634 | 0.731 | 0.569 | 1.64 | 1.26
PLDGEYFTHQI [TP53_Y327_L330H] | 0.717 | 0.429 | 1.12 | 1.65 | 1.5 | 1.61 | 1.08 | 1.15 | 1.43 | 0.656 | 1.55 | 2.17 | 0.932 | 1.99 | 4.62 | 0.99
PLQKTYNFNML [SLC4A1_Y553_V557M_YF] | 2.38 | 0.717 | 0.713 | 0.594 | 0.63 | 0.784 | 0.665 | 0.587 | 1.17 | 0.582 | 0.809 | 0.318 | 0.476 | 0.493 | 0.801 | 0.861
PLQNTYNFNVL [SLC4A1_Y553_K551N_YF] | 1.1 | 0.624 | 0.85 | 0.57 | 0.893 | 2.52 | 0.812 | 0.756 | 1.43 | 0.634 | 0.616 | 0.803 | 0.798 | 1.67 | 0.891 | 0.959
PNAFIYVVQLP [L1CAM_Y420_A415P_YF] | 0.768 | 0.656 | 0.931 | 1.06 | 0.747 | 0.87 | 0.737 | 1.53 | 1.56 | 1.69 | 1.31 | 0.797 | 1.2 | 0.896 | 1.39 | 1.26
